Target: T1, purified TRIB2 protein (ab186094, Abcam) (Homo sapiens (Human), UniProt Q92519)
T1 chain: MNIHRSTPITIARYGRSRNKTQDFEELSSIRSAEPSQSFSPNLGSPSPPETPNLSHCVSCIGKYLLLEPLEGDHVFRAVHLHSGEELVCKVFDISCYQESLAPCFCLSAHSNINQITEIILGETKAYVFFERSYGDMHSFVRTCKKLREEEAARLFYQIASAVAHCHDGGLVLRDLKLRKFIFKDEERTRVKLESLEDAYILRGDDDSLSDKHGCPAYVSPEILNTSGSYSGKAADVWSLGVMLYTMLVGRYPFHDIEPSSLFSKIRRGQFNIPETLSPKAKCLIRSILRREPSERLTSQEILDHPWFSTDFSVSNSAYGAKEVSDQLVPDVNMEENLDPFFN
Assay: in vitro reciprocal co-IP

B1: purified PCBP2 protein (H00005094-P01, Abnova) (protein)
chain: MDTGVIEGGLNVTLTIRLLMHGKEVGSIIGKKGESVKKMREESGARINISEGNCPERIITLAGPTNAIFKAFAMIIDKLEEDISSSMTNSTAASRPPVTLRLVVPASQCGSLIGKGGCKIKEIRESTGAQVQVAGDMLPNSTERAITIAGIPQSIIECVKQICVVMLETLSQSPPKGVTIPYRPKPSSSPVIFAGGQDRYSTGSDSASFPHTTPSMCLNPDLEGPPLEAYTIQGQYAIPQPDLTKLHQLAMQQSHFPMTHGNTGFSGIESSSPEVKGYWGLDASAQTTSHELTIPNDLIGCIIGRQGAKINEIRQMSGAQIKIANPVEGSTDRQVTITGSAASISLAQYLINVRLSSETGGMGSS
binding result: binds

From publication PMC7791120 (2021)
